The values that follow come from US7189837 (NEUROTECH S A, dated 2007).

Assay [1] addresses hTR-FcΔH (human transferrin receptor residues 1-97 fused to CH1 and hinge deleted human IgG1 heavy chain constant region), expressed on BHK cells (human). The experiment in a line: cell ELISA on BHK-FcΔH cells, goat anti-human IgG Fc alkaline phosphatase conjugate 1:1000, PNPP substrate.
Assay [2] has as its target T1, human FcγRI on interferon-γ-treated U937 cells (human, UniProt P12314 16-374).
T1 construct: whole, on cells; also called FcγR1; CD64
The experiment in a line: inferred from Fc receptor-mediated superoxide production in U937 cells. The procedure:
To assess whether cell surface expression of reverse Fc was biologically active in terms of Fc receptor binding and complement fixation, Fc receptor-mediated superoxide production in the human monocyte-like cell line was examined. Superoxide was measured spectrophotometrically as a function of the cell's ability to reduce cytochrome c. Superoxide production was determined using the 96-well microtiter plate assay of Tao, et al., *J Leukoc Biol*, 58: 203–208 (1995). 25,000 cells/well of either BHK-WT (control), opsonized BHK cells, or BHK-reverse Fc clones were added to the assay plate containing either human monocyte-like U937 cells (ATCC, Rockville, Md.) pre treated with recombinant human interferon-γ (R&D Systems, Minneapolis, Minn.) or lavaged mouse peritoneal macrophages. The O_2-release was measured as the superoxide dismutase (SOD) inhibitable reduction of cytochrome c at 550 nm by using a ThermoMax Plate reader (Molecular Devices, Menlo Park, Calif.). The rate of O_2-production was monitored from time 0 to […] after stimulation.

T1 sequence (P12314 16-374): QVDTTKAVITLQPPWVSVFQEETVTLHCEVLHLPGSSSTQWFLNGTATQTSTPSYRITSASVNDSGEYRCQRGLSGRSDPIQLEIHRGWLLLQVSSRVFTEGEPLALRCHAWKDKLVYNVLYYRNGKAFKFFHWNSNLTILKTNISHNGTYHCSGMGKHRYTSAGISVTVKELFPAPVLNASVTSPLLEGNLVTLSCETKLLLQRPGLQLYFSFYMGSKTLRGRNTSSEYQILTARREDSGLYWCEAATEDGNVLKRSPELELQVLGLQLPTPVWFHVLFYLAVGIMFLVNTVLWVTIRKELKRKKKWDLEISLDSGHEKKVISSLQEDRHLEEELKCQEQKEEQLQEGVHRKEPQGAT

“Goat anti-human IgG Fc alkaline phosphatase conjugate (Sigma) (antibody)” showed a Cell Surface Fc (OD405) in assay [1] of 2.8 OD405.

B1: hTR-FcΔH (human transferrin receptor residues 1-97 fused to CH1 and hinge deleted human IgG1 heavy chain constant region), expressed on BHK cells (Fc fusion)
chain: MMDQARSAFSNLFGGEPLSYTRFSLARQVDGDNSHVEMKLAVDEEENADNNTKANVTKPKRCSGSICYGTIAVIVFFLIGFMIGYLGYCKGVEPKTEGSAPELLGGPSVFLFPPKPKDTLMISRTPEVTCVVVDVSHEDPEVKFNWYVDGVEVHNAKTKPREEQYNSTYRVVSVLTVLHQDWLNGKEYKCKVSNKALPAPIEKTISKAKGQPREPQVYTLPPSRDELTKNQVSLTCLVKGFYPSDIAVEWESNGQPENNYKTTPPVLDSDGSFFLYSKLTVDKSRWQQGNVFSCSVMHEALHNHYTQKSLSLSPGK
notes: also called BHK-FcΔH; BHK-FcΔH(3)
As to B1, the binding result in assay [2] is listed as “binds”.
